Substrate in the series: Nc1ncnc2c1ncn2[C@@H]1O[C@H](COP(=O)(O)OP(=O)(O)OP(=O)(O)O)[C@@H](O)[C@H]1O
The series is described as follows: single-molecule fluorescence (FRET / SNAP649 dwell time), Michaelis-Menten fit of k1 versus ATP. The series is classed as biochemical, Saccharomyces cerevisiae. Particulars: k1 step: ATP-dependent translocation on nascent RNA to stalled Pol II TEC (bioPol II/RNA-Cy3/DNA or Pol II/RNA-Cy3/bioDNA, 28 bp transcription unit); 10 nM Sen1 HD-SNAP649, 2 nM TFIIS, UTP and CTP, 20; pH 8.0.

By Km is commonly meant the concentration of substrate that gives half-maximal velocity.

B1: Sen1 HD-SNAP649 (Sen1 helicase domain) (Saccharomyces cerevisiae S288C) (protein)
chain: AELAKQELEHMRKRLNVDMNPLYEIILQWDYTRNSEYPDDEPIGNYSDVKDFFNSPADYQKVMKPLLLLESWQGLCSSRDREDYKPFSIIVGNRTAVSDFYDVYASVAKQVIQDCGISESDLIVMAYLPDFRPDKRLSSDDFKKAQHTCLAKVRTLKNTKGGNVDVTLRIHRNHSFSKFLTLRSEIYCVKVMQMTTIEREYSTLEGLEYYDLVGQILQAKPSPPVNVDAAEIETVKKSYKLNTSQAEAIVNSVSKEGFSLIQGPPGTGKTKTILGIIGYFLSTKNASSSNVIKVPLEKNSSNTEQLLKKQKILICAPSNAAVDEICLRLKSGVYDKQGHQFKPQLVRVGRSDVVNVAIKDLTLEELVDKRIGERNYEIRTDPELERKFNNAVTKRRELRGKLDSESGNPESPMSTEDISKLQLKIRELSKIINELGRDRDEMREKNSVNYRNRDLDRRNAQAHILAVSDIICSTLSGSAHDVLATMGIKFDTVIIDEACQCTELSSIIPLRYGGKRCIMVGDPNQLPPTVLSGAASNFKYNQSLFVRMEKNSSPYLLDVQYRMHPSISKFPSSEFYQGRLKDGPGMDILNKRPWHQLEPLAPYKFFDIISGRQEQNAKTMSYTNMEEIRVAIELVDYLFRKFDNKIDFTGKIGIISPYREQMQKMRKEFARYFGGMINKSIDFNTIDGFQGQEKEIILISCVRADDTKSSVGFLKDFRRMNVALTRAKTSIWVLGHQRSLAKSKLWRDLIEDAKDRSCLAYACSGFLDPRNNRAQSILRKFNVPVPSEQEDDYKLPMEYITQGPDEVKSN
notes: helicase domain, residues 1095-1904; C-terminal PreScission site, SNAP-tag and 10xHis-tag kept, labelled with SNAP-Surface 649; expressed in E. coli BL21(DE3) codon plus RIPL; single molecule acts
Regarding B1, the Michaelis-Menten constant (Km) turned out to be 40 ± 15 µM.

Source of the values: publication PMC11180205, “Single-molecule reconstruction of eukaryotic factor-dependent transcription termination” (Nature Communications, 2024).
